A short description of this data set: protein stability index of a GFP-peptide fusion (GPS, HEK-293T) (PSI 1-6); higher = more stable. As to conditions: c terminus: a fixed tail appended.

± gives the standard deviation.
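Also: 24-mer peptide tiles fused after GFP, lentivirally expressed, FACS-sorted into six equal bins by GFP/DsRed ratio, decoded by Illumina sequencing, PSI is the read-weighted mean bin number.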

Take SWEKVTGHNSPLYKRQEESGAAAS [CHIT1]: the protein stability index reads like this: (treatment: DMSO) 4.77 ± 0.37; (treatment: MLN4924 1 uM, 8 h) 4.51 ± 0.32.

Regarding SWVSELLWSLFVPFTVYQVRWLRP [AUP1], the protein stability index amounted to 3.12 ± 0.27 (treatment: DMSO) and 2.81 ± 0.51 (treatment: MLN4924 1 uM, 8 h).

For the sequence SYFKCVQKEVLPSMRKIVATWMLE [CCND1], the protein stability index was 2.91 ± 0.76 (treatment: DMSO) and 2.46 ± 0.37 (treatment: MLN4924 1 uM, 8 h).

Consider SYLSLTSEDNTSFDRKKKSISLMY [SLA], for which the protein stability index is 2.94 ± 0.18 (treatment: DMSO) and 2.95 ± 0.25 (treatment: MLN4924 1 uM, 8 h).

SYSIQKVIGFAKMIPGFRDLTSED [VDR]: the protein stability index came to 2.52 ± 0.29 (treatment: DMSO) and 2.88 ± 0.12 (treatment: MLN4924 1 uM, 8 h).

For the sequence SYSSCGDFHYCDREHVCRKDQRNP [RBMY1A1], the protein stability index was 4.06 ± 0.41 (treatment: DMSO) and 4.09 ± 0.1 (treatment: MLN4924 1 uM, 8 h).

The sequence SYTTTTTITAPPSRVLQNGGDKLE [SCD] showed a protein stability index (treatment: DMSO) of 4.85 ± 0.23 and a protein stability index (treatment: MLN4924 1 uM, 8 h) of 4.81 ± 0.29.

SYVHILSAILQFPSTLGRCKAFST [OR10K2]: the protein stability index amounted to 3.38 ± 0.61 (treatment: DMSO) and 3.01 ± 0.63 (treatment: MLN4924 1 uM, 8 h).

On to TADEIPMEPGDIIGVAGNHWDGYS [FUT8], for which the protein stability index by setting is: (treatment: DMSO) 4.21 ± 0.32; (treatment: MLN4924 1 uM, 8 h) 4.16 ± 0.23.

For TAEAEELKPFFMKEVGSHFDDFVT [SOAT1], the protein stability index reads like this: (treatment: DMSO) 3.91 ± 0.25; (treatment: MLN4924 1 uM, 8 h) 3.94 ± 0.34.

Sequence TAERKQEQKTGTEAEAADSGAVGA [MFSD9] came in with a protein stability index (treatment: DMSO) of 5.56 ± 0.28 and a protein stability index (treatment: MLN4924 1 uM, 8 h) of 5.65 ± 0.23.

For TAVHGRFTRSQTLIQNGGEIDCVD [ANKRD44], the protein stability index runs as follows: (treatment: DMSO) 4.34 ± 0.14; (treatment: MLN4924 1 uM, 8 h) 4.48 ± 0.19.

On to TCTLLLLYSLAPTMGAVVLSSTLL [MFSD9], for which the protein stability index was determined as 3.22 ± 0.52 (treatment: DMSO) and 3.17 ± 0.28 (treatment: MLN4924 1 uM, 8 h).

Regarding TDNGTFNLSRGQTPLTEGSEDLDG [RETREG3], the protein stability index came to 5.25 ± 0.26 (treatment: DMSO) and 5.45 ± 0.25 (treatment: MLN4924 1 uM, 8 h).

On to TEFKELDGLREALANLRGLSEEER [CCDC89], for which the protein stability index turned out to be 5.05 ± 0.28 (treatment: DMSO) and 4.85 ± 0.28 (treatment: MLN4924 1 uM, 8 h).

For TFESPADAKDAARDMNGKSLDGKA [RBMX], the protein stability index (treatment: DMSO) came to 5.39 ± 0.3 and the protein stability index (treatment: MLN4924 1 uM, 8 h) came to 5.55 ± 0.12.

TFFEVSPLCNFNITESFTELARIV [RAB40B]: the protein stability index runs as follows: (treatment: DMSO) 2.24 ± 0.51; (treatment: MLN4924 1 uM, 8 h) 2.14 ± 0.16.

Regarding TFTASFSGKVFPFFAVWKKGSCLT [TRIM15], the protein stability index runs as follows: (treatment: DMSO) 2.46 ± 0.47; (treatment: MLN4924 1 uM, 8 h) 2.34 ± 0.42.

Consider TGECKELEKKNEALKERADSLAKE [ATF4], for which the protein stability index by setting is: (treatment: DMSO) 5.54 ± 0.3; (treatment: MLN4924 1 uM, 8 h) 5.59 ± 0.18.

Consider TGLNNGRIKIWDVYTGKLLLNLVD [WSB1], for which the protein stability index is, setting by setting: (treatment: DMSO) 2.54 ± 1.3; (treatment: MLN4924 1 uM, 8 h) 2.25 ± 0.61.

Turning to TGRFSFTLPYPVKIKVRFSFFLQI [HACD3], the protein stability index is 3.14 ± 0.37 (treatment: DMSO) and 2.92 ± 0.17 (treatment: MLN4924 1 uM, 8 h).

In the case of THACREYLKNLPLLSKYCGYREDN [TPH1], the protein stability index reads like this: (treatment: DMSO) 2.22 ± 0.26; (treatment: MLN4924 1 uM, 8 h) 2.18 ± 0.41.

As for TKGEKIMLAIITKMTLTQVSTWFA [IRX6], the protein stability index is 2.97 ± 0.5 (treatment: DMSO) and 2.95 ± 0.68 (treatment: MLN4924 1 uM, 8 h).

Consider TKLEAEIVTLRHVLAAKERRCGEL [TPD52L3], for which the protein stability index is, setting by setting: (treatment: DMSO) 2.89 ± 0.22; (treatment: MLN4924 1 uM, 8 h) 2.78 ± 0.35.

In the case of TLAQTISEAAIGGAMLGQTTSEEA [HDAC6], the protein stability index is 4.66 ± 0.32 (treatment: DMSO) and 4.78 ± 0.28 (treatment: MLN4924 1 uM, 8 h).

Turning to TLNQLQSLQNSLECAMETTEEQTR [NECAB1], the protein stability index reads like this: (treatment: DMSO) 4.94 ± 0.13; (treatment: MLN4924 1 uM, 8 h) 4.97 ± 0.28.

Take TNTHPPASLPSQKYPGPQAEGDSE [CHGA]: the protein stability index runs as follows: (treatment: DMSO) 5.43 ± 0.2; (treatment: MLN4924 1 uM, 8 h) 5.57 ± 0.13.

In turn, TPEEQGELEPLKGNFDWEAIFDAG [FOXJ1] showed a protein stability index (treatment: DMSO) of 5.29 ± 0.28 and a protein stability index (treatment: MLN4924 1 uM, 8 h) of 5.41 ± 0.088.

For TPHTPKSLLSKARGIDSSSVKLRG [WEE1], the protein stability index is, setting by setting: (treatment: DMSO) 4.26 ± 0.54; (treatment: MLN4924 1 uM, 8 h) 4.08 ± 0.28.

With TPLHLDLTQLHRLSLESSPDAPDH [PLEKHN1], the protein stability index by setting is: (treatment: DMSO) 4.59 ± 0.29; (treatment: MLN4924 1 uM, 8 h) 4.63 ± 0.23.

TPPPSPNTQTPVQPPPPPPPPPMQ [CCDC6] yielded a protein stability index (treatment: DMSO) of 5.12 ± 0.084 and a protein stability index (treatment: MLN4924 1 uM, 8 h) of 5.26 ± 0.25.

In turn, TPSQEHLKHQTVYRLLKCAPRGKN [FEM1A] showed a protein stability index (treatment: DMSO) of 3.61 ± 0.15 and a protein stability index (treatment: MLN4924 1 uM, 8 h) of 3.62 ± 0.12.

As for TPTSLSSLSNAVANTMEHLSLLDN [FBXO33], the protein stability index (treatment: DMSO) is 4.44 ± 0.065 and the protein stability index (treatment: MLN4924 1 uM, 8 h) was found to be 4.44 ± 0.21.

Turning to TQKLSKIETLRLAKNYIWALSEIL [NEUROD6], the protein stability index was 2.61 ± 0.49 (treatment: DMSO) and 2.67 ± 0.47 (treatment: MLN4924 1 uM, 8 h).

With TRHVFTCGRRGIKVWSLTGQVAED [TLE6], the protein stability index is, setting by setting: (treatment: DMSO) 2.62 ± 0.14; (treatment: MLN4924 1 uM, 8 h) 2.68 ± 0.25.

On to TRPKKMGSQLPKPRMLRESGHGDA [FATE1], for which the protein stability index is, setting by setting: (treatment: DMSO) 4.53 ± 0.19; (treatment: MLN4924 1 uM, 8 h) 4.53 ± 0.22.

(Values after the supplement of paper PMC10567573.)
